Results from patent US20150104448A1 (TRUE NORTH THERAPEUTICS, published 2015).

What was measured:
Inactive-C1s = target: T1, Inactive-C1s (Homo sapiens, UniProt P09871); assay: kinetic binding measurement, method not stated; Table 4, Inactive-C1s
T1 construct: proenzyme (pro-C1s); also called pro-C1s
T1 sequence (single chain, looked up): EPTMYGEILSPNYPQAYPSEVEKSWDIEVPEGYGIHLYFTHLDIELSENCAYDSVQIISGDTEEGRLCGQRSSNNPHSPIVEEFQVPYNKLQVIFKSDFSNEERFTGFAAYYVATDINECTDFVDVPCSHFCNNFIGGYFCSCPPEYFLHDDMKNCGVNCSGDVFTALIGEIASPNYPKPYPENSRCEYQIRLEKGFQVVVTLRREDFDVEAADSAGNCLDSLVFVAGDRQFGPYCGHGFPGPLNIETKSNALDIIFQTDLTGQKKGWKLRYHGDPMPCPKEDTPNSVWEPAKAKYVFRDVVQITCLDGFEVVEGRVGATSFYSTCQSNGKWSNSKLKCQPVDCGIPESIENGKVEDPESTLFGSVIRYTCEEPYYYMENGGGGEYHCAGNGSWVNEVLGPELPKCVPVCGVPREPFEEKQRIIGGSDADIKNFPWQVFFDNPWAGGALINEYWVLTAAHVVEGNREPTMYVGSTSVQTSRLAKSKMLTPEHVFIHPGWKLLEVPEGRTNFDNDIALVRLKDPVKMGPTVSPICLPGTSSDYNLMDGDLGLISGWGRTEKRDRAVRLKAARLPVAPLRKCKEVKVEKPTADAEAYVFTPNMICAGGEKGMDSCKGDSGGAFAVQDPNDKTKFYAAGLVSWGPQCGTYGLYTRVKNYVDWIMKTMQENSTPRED

[1] = target: T2, purified human activated C1s protein, two-chain form (Homo sapiens, UniProt P09871 16-688); assay: competition ELISA, plate-coated human C1s; competitor biotin-labeled M81 at 0.5E-9 M; competition with biotin-labeled M81 (0.5E-9 M), plate-coated native human C1s
T2 construct: Also used here for C1s acting in human serum assays; also called human C1s; active C1s
T2 sequence: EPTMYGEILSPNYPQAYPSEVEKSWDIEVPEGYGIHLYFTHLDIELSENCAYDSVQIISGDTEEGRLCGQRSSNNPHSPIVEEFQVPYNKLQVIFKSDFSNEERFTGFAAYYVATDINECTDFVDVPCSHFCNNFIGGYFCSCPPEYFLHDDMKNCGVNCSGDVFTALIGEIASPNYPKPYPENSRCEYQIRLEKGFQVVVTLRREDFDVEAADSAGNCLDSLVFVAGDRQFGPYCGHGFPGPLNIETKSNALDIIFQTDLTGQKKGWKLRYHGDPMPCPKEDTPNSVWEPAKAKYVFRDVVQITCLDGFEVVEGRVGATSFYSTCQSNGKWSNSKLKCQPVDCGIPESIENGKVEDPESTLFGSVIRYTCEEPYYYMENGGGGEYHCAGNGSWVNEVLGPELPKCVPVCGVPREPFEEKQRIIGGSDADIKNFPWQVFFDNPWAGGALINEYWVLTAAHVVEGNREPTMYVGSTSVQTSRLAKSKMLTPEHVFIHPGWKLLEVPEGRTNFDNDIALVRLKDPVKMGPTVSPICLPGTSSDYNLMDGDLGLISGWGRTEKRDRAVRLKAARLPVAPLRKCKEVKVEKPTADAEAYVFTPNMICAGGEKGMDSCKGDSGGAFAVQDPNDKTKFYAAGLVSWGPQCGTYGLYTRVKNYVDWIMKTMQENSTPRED
Experimental: To determine if IPN003 could compete binding of M81 to human C1s, competition assays were performed, in which biotin-labeled M81 (final concentration 0.5E-9 M) was incubated with increasing concentrations of unlabeled antibodies in wells coated with human C1s.

C2 = target: T3, C2; assay: ELISA, target proteins immobilized on micro-titer plates
T3 construct: member of group m5; also called complement C2
T3 chain: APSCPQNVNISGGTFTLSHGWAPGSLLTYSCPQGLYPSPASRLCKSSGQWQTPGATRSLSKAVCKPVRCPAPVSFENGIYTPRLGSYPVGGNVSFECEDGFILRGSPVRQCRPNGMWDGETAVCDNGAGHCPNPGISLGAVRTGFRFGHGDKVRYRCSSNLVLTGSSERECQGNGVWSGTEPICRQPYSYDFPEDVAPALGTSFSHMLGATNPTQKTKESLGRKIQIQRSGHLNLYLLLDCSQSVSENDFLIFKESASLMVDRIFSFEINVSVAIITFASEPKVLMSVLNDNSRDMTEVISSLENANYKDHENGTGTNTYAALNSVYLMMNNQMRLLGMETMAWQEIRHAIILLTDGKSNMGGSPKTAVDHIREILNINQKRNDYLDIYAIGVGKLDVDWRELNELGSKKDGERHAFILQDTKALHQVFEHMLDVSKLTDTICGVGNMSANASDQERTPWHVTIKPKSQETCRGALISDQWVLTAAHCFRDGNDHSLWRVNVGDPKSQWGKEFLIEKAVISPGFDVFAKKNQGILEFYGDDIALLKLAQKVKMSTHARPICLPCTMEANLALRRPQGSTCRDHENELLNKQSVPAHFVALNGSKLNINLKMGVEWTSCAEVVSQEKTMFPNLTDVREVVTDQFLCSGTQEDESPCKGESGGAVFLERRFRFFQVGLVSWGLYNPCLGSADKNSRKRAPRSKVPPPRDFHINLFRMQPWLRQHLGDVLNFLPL
Experimental: (§1) To determine whether IPN003 could bind other components of the complement cascade, ELISA assays were performed with target proteins immobilized on micro-titer plates.

[2] = target: T2, purified human activated C1s protein, …; assay: as above
Experimental: as §1

C1r = target: T4, C1r; assay: as above
T4 construct: member of group m5; also called complement C1r
T4 chain: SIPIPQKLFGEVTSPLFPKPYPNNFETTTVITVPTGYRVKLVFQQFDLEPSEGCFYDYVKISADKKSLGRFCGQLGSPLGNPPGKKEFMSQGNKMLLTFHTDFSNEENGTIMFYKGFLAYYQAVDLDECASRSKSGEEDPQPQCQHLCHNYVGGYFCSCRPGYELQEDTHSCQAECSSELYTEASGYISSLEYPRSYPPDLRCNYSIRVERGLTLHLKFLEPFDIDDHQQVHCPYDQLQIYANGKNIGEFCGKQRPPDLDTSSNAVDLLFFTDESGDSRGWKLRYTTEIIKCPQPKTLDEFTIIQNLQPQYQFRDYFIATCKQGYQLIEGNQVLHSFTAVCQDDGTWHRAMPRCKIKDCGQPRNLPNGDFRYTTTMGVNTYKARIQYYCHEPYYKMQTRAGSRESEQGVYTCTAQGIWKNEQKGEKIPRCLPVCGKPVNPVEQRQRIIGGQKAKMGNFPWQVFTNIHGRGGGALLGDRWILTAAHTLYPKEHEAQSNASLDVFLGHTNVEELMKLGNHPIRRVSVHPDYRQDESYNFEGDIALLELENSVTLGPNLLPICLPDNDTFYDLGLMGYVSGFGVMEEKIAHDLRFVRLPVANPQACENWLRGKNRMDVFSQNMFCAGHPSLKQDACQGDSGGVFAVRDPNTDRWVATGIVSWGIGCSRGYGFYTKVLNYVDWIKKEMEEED
Experimental: as §1

[3] = target: T2, purified human activated C1s protein, …; assay: kinetic binding measurement, method not stated; lower end of the printed KD range, native human C1s
purified rat C1s = target: T5, purified rat C1s (rat, UniProt Q6P6T1 16-688, limits assumed); assay: ELISA, purified rat C1s immobilized on micro-titer plates, increasing dilutions of antibody
T5 construct: also called rat complement C1s protein
T5 sequence (looked up): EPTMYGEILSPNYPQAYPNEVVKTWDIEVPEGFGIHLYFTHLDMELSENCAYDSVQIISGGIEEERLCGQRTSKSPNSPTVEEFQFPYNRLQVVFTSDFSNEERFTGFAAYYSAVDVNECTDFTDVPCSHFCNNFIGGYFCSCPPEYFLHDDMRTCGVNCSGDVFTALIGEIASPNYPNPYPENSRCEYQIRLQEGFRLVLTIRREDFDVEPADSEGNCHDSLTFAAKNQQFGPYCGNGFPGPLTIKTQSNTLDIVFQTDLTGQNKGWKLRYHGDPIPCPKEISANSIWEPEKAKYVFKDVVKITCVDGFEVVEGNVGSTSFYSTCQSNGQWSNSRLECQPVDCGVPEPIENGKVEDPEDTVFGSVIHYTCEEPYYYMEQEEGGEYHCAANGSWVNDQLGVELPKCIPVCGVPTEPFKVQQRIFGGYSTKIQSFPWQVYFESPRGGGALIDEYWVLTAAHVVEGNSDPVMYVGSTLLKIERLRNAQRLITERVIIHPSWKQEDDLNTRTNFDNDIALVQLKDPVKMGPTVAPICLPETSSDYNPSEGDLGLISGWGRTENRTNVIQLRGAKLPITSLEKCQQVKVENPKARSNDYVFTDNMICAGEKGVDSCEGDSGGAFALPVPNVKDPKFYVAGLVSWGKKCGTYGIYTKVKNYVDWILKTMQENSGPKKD
Experimental: ELISA assays were performed with purified rat C1s immobilized on micro-titer plates and increasing dilutions of IPN003 or M81.

[4] = target: T2, purified human activated C1s protein, …; assay: kinetic binding measurement, method not stated; Table 4, Active-C1s
[5] = target: T2, purified human activated C1s protein, …; assay: kinetic binding measurement, method not stated; kinetic measurement, native human C1s

B1: Anti-C1s monoclonal antibody IPN003 (antibody, V domains shown)
VH: EVMLVESGGALVKPGGSLKLSCAASGFTFSNYAMSWVRQIPEKRLEWVATISSGGSHTYYLDSVKGRFTISRDNARDTLYLQMSSLRSEDTALYYCARLFTGYAMDYWGQGTSVTVSS
VL: QIVLTQSPAIMSASLGERVTMTCTASSSVSSSYLHWYQQKPGSSPKLWIYSTSNLASGVPARFSGSGSGTFYSLTISSMEAEDDATYYCHQYYRLPPITFGAGTKLELK
notes: Mouse monoclonal antibody from an NZBW hybridoma; Biotin-labeled in some assays; also called IPN-M34; M34
- Kd (Inactive-C1s): 1580 pM
- koff (Inactive-C1s): 0.000553 s⁻¹
- kon (Inactive-C1s): 356000 M⁻¹ s⁻¹
- IC50 [1]: 330 pM
- binding result (C2): no binding (tested: about 2e-7 M)
- EC50 (read off the curve) [2]: ~300 pM
- binding result (C1r): no binding (tested: about 2e-7 M)
- Kd [3]: 1580 to 2040 pM
- Kd (purified rat C1s): 200 pM
- Kd [4]: 2040 pM
- koff [4]: 0.000658 s⁻¹
- kon [4]: 323000 M⁻¹ s⁻¹
- koff [5]: 0.000553 s⁻¹
- kon [5]: 356000 M⁻¹ s⁻¹
